Laboratory results reported in patent US20090149389A1 (PURDUE RESEARCH FOUNDATION, published 2009).

Tests used:
Experiment in all cases: cell-based or functional assay
[1] = target: T1, Aurora-A (h) (human (h), UniProt O14965 1-403)
T1 sequence (looked up): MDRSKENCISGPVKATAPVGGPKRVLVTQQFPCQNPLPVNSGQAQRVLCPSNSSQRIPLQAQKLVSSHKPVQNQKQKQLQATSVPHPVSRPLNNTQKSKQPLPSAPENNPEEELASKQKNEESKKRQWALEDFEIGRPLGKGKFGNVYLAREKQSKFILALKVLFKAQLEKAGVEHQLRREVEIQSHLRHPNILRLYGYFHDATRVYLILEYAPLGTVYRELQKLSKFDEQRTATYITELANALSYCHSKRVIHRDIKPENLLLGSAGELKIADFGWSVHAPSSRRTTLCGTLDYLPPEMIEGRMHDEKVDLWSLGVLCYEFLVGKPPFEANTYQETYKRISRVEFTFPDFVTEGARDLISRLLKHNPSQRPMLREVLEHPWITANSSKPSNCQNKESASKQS

[2] = target: BTK (h) (human (h), UniProt Q06187 1-659)
BTK (h), sequence (Q06187 whole entry): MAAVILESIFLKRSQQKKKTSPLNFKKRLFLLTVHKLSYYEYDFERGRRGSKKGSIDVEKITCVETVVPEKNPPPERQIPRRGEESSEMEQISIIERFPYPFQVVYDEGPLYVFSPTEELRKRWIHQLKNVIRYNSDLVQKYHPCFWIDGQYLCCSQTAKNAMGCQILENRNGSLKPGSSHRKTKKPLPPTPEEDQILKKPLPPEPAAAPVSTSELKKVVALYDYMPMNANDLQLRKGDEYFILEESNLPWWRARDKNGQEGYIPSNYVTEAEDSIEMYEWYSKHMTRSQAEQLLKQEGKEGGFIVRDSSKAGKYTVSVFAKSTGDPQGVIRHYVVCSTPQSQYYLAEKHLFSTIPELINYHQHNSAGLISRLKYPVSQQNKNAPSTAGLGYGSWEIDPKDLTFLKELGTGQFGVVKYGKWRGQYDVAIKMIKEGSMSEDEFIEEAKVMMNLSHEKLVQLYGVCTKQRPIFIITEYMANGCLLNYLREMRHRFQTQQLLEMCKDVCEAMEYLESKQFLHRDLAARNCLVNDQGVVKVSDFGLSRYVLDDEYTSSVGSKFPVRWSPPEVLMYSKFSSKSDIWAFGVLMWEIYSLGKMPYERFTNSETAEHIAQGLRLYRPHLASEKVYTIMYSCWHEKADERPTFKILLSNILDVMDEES

[3] = target: CDKI/cyclinB (h) (human (h), UniProt P06493 1-297)
CDKI/cyclinB (h), sequence (P06493 whole entry): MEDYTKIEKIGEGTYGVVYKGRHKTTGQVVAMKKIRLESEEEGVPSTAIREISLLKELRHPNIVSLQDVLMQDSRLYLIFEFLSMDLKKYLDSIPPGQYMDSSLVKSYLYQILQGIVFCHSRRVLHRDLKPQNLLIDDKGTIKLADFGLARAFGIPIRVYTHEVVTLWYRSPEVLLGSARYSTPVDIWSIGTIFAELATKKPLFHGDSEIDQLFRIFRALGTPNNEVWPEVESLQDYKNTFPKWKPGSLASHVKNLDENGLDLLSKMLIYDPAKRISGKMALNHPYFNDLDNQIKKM

[4] = target: T2, CHK1 (h) (human (h), UniProt O14757 1-476)
T2 sequence (looked up): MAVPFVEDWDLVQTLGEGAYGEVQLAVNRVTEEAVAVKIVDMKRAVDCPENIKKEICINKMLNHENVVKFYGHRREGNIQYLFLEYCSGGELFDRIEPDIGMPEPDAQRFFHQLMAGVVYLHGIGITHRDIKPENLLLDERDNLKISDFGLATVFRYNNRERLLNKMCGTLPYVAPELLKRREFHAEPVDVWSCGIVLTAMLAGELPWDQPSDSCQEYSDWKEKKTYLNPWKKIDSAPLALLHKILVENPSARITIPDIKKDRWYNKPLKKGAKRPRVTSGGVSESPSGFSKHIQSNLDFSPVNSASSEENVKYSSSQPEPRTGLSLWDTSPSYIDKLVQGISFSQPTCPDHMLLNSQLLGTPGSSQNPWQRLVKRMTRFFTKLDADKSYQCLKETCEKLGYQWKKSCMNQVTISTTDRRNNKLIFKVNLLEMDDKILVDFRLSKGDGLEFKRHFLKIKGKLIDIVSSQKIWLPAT

[5] = target: T3, EphA2 (h) (human (h), UniProt P29317 591-976, limits assumed)
T3 sequence (looked up): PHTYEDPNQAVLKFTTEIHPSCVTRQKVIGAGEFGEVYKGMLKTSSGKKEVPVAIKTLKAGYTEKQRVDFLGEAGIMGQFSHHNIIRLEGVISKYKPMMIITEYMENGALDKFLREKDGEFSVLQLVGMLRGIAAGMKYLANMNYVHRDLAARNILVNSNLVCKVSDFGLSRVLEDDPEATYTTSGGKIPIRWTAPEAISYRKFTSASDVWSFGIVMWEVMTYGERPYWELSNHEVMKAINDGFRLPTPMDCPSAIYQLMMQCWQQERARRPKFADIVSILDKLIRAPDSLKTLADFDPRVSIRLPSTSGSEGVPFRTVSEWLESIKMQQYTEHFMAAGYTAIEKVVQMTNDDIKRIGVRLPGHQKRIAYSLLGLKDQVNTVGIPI

[6] = target: T4, Flt3 (h) (human (h), UniProt P36888 564-993, limits assumed)
T4 sequence (looked up): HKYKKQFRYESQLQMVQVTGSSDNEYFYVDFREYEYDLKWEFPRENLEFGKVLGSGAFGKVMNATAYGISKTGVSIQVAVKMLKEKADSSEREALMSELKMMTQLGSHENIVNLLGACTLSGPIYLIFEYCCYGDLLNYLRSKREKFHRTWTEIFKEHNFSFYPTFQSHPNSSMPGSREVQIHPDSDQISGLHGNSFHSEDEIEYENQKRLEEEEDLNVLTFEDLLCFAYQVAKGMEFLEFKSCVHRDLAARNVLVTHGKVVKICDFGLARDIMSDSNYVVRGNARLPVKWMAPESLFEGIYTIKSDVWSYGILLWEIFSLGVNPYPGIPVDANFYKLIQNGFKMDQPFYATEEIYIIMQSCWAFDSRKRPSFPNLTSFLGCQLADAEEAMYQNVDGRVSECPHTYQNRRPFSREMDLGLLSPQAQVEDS

[7] = target: JAK3 (h) (human (h), UniProt P52333 781-1124, limits assumed)
JAK3 (h), sequence (P52333 781-1124 limits assumed): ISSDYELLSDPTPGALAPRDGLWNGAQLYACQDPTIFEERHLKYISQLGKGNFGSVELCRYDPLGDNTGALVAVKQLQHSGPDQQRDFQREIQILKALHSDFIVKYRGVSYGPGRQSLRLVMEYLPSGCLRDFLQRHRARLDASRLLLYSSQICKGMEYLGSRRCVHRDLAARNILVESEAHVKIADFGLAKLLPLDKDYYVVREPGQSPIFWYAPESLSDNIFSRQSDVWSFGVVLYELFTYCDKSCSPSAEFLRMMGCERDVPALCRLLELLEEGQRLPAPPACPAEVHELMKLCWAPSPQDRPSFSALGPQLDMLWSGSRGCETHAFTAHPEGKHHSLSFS

[8] = target: JNK1α1 (h) (human (h), UniProt P45983-2 1-384)
JNK1α1 (h), sequence (P45983 other isoform, or with tags, fused parts or gaps limits assumed): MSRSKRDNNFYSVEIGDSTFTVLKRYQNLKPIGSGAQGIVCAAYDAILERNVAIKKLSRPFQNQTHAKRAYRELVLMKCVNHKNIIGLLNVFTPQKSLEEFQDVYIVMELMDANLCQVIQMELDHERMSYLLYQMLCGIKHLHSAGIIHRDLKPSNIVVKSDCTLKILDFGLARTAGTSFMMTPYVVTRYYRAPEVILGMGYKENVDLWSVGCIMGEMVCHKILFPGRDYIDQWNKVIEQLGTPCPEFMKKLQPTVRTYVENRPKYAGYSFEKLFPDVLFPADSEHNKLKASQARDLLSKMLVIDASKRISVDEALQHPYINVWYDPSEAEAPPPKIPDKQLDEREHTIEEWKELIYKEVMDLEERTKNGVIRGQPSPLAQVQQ

[9] = target: Met (h) (human (h), UniProt P08581 974-1390, limits assumed)
Met (h), sequence (P08581 974-1390 limits assumed): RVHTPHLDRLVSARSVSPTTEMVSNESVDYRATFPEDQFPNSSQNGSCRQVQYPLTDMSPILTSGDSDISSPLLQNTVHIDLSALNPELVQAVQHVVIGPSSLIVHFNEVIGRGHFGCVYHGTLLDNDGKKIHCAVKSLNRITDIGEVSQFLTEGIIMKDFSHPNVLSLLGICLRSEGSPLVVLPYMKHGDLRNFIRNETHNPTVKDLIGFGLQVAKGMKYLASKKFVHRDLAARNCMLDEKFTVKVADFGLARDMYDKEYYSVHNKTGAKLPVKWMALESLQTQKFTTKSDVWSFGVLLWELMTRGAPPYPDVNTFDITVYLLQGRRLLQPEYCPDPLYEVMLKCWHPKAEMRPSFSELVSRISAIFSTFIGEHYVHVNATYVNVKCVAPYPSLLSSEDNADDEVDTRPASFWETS

[10] = target: MLCK (h) (human (h))
[11] = target: T5, PhKγ2 (h) (human (h), UniProt P15735 1-406)
T5 sequence (looked up): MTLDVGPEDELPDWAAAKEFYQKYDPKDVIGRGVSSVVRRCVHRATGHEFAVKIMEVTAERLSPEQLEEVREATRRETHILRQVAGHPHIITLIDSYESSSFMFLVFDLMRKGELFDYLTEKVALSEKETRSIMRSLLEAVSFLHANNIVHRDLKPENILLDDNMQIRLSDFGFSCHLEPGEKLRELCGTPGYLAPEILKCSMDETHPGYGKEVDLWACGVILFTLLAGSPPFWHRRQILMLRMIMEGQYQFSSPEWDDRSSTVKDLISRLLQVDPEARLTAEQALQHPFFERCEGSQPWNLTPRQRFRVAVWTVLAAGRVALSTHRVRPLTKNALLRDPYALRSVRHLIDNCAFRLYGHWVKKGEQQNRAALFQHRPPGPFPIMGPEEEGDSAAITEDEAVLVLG

[12] = target: Pim-1 (h) (human (h), UniProt P11309 1-313)
Pim-1 (h), sequence (P11309 whole entry): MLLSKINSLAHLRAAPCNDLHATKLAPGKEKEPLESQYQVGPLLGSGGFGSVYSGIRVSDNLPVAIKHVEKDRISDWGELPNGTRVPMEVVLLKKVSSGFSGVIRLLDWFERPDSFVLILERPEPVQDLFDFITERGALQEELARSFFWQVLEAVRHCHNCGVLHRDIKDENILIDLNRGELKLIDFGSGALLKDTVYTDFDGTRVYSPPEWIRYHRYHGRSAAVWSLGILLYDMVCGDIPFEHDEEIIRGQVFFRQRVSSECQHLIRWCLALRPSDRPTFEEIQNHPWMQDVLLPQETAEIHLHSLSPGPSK

[13] = target: PKB β (h) (human (h), UniProt P31751 1-481, limits assumed)
PKB β (h), sequence (P31751 whole entry): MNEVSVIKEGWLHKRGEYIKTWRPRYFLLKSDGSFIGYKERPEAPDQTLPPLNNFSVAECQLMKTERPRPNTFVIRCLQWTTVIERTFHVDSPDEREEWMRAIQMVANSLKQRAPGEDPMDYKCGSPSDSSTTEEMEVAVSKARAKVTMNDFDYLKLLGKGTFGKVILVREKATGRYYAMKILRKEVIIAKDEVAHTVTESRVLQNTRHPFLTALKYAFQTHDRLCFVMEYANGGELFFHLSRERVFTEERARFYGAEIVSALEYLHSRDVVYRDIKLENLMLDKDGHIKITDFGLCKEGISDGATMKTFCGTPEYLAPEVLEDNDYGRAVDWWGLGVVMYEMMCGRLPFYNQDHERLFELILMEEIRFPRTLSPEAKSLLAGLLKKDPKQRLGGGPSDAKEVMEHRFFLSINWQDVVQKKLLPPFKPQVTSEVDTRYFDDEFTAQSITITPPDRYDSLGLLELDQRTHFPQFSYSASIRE

[14] = target: ROCK-1 (h) (human (h), UniProt Q13464 17-535, limits assumed)
ROCK-1 (h), sequence (Q13464 17-535 limits assumed): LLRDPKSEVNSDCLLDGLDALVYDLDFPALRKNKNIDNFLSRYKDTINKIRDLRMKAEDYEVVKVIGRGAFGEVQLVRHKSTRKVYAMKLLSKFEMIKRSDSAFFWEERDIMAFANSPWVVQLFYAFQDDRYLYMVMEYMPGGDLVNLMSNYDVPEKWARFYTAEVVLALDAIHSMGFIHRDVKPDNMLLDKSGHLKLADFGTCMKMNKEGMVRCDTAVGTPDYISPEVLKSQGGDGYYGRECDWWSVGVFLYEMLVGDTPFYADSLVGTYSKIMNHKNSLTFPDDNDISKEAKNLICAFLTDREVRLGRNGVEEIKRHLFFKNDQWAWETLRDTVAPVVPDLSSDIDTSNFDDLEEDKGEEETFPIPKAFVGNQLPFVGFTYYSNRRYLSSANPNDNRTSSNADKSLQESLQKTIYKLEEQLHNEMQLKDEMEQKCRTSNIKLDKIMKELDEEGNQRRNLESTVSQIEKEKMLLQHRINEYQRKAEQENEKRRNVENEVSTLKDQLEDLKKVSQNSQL

[15] = target: Rsk2 (h) (human (h), UniProt P51812 1-740)
Rsk2 (h), sequence (P51812 whole entry): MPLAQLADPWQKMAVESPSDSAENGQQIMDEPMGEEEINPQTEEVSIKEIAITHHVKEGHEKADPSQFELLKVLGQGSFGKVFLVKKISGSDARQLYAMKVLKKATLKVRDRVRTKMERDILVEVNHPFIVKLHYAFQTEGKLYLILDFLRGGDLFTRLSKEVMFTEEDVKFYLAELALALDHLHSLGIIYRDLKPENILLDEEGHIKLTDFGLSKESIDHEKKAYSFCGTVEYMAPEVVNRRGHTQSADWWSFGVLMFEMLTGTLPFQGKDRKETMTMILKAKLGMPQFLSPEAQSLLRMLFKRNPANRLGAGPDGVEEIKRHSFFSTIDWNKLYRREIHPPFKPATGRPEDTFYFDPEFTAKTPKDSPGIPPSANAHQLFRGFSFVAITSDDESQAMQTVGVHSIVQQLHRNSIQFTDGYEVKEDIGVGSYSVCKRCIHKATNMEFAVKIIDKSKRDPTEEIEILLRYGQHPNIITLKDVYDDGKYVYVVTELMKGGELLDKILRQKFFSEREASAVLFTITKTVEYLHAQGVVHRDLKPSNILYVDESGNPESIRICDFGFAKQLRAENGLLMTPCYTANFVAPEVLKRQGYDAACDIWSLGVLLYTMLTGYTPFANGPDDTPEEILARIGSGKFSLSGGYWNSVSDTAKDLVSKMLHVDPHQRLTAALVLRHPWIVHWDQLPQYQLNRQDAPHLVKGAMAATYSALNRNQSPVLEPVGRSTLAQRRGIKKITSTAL

For KAFAKLAARLYRKALARQLGVAA, the “Profile-1 @ = 100 µm (kinase profiler assay)” value (“Profile-1 @ = 100 µm” for short) [1] was 60, the “Profile-1 @ = 100 µm” value [2] was 16 and the “Profile-1 @ = 100 µm” value [3] was 55. For the same binder, the “Profile-1 @ = 100 µm” value [4] was 68, the “Profile-1 @ = 100 µm” value [5] was 22 and the “Profile-1 @ = 100 µm” value [6] was 20. For the same binder, the “Profile-1 @ = 100 µm” value [7] was 91, the “Profile-1 @ = 100 µm” value [8] was 92 and the “Profile-1 @ = 100 µm” value [9] was 22. For the same binder, the “Profile-1 @ = 100 µm” value [10] was 2, the “Profile-1 @ = 100 µm” value [11] was 27 and the “Profile-1 @ = 100 µm” value [12] was 1. For the same binder, the “Profile-1 @ = 100 µm” value [13] was 28, the “Profile-1 @ = 100 µm” value [14] was 29 and the “Profile-1 @ = 100 µm” value [15] was 6.
